Measurements published in patent US20130143798A1 (Novo Nordisk, published 2013).
Numbered stars: 1 amine (or outer) side, 2 acyl side, 3 side chain; on linkers, the order of the positions; unused ones are H or OH. Square brackets hold non-standard residues; d marks the D form. Side chains are listed from the residue outwards. Ends that are not written are not given here. * marks the point of attachment. C18 diacid = O=C(O)CCCCCCCCCCCCCCCCC(=O)*; γGlu = O=C(O)[C@H](CCC(=O)[*:2])N[*:1]; AEEA = NCCOCCOCC(=O)O; Aib = CC(C)(N)C(=O)O

What follows are binders tested against glucagon receptor (UniProt P47871 26-477, limits assumed) (assay: cell-based or functional assay).
Sequence of glucagon receptor (P47871 26-477 limits assumed): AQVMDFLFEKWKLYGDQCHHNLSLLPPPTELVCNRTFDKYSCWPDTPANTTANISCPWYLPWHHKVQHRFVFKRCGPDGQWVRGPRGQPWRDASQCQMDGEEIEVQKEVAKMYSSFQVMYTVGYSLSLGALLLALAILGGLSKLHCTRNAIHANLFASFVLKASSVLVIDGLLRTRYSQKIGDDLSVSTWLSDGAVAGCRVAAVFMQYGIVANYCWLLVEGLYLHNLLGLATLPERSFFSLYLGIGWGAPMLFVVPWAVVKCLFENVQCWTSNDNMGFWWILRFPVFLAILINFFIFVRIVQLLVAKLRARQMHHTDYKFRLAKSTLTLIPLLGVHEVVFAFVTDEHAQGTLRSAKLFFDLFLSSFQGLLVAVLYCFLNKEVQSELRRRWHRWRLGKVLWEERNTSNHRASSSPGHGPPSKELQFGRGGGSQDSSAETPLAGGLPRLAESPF

| Binder | Assay (I) Glucagon [EC50] |
| --- | --- |
| HSQGTFTSDYSKYLDSKRAQEFVQWLLK([AEEA-AEEA-γGlu-C18 diacid])T-NH2 (N-terminus assumed; SMILES CC(C)C[C@H](NC(=O)[C@H](Cc1ccc(O)cc1)NC(=O)[C@H](CCCCN)NC(=O)[C@H](CO)NC(=O)[C@H](Cc1ccc(O)cc1)NC(=O)[C@H](CC(=O)O)NC(=O)[C@H](CO)NC(=O)[C@@H](NC(=O)[C@H](Cc1ccccc1)NC(=O)[C@@H](NC(=O)CNC(=O)[C@H](CCC(N)=O)NC(=O)[C@H](CO)NC(=O)[C@@H](N)Cc1c[nH]cn1)[C@@H](C)O)[C@@H](C)O)C(=O)N[C@@H](CC(=O)O)C(=O)N[C@@H](CO)C(=O)N[C@@H](CCCCN)C(=O)N[C@@H](CCCNC(=N)N)C(=O)N[C@@H](C)C(=O)N[C@@H](CCC(N)=O)C(=O)N[C@@H](CCC(=O)O)C(=O)N[C@@H](Cc1ccccc1)C(=O)N[C@H](C(=O)N[C@@H](CCC(N)=O)C(=O)N[C@@H](Cc1c[nH]c2ccccc12)C(=O)N[C@@H](CC(C)C)C(=O)N[C@@H](CC(C)C)C(=O)N[C@@H](CCCCNC(=O)COCCOCCNC(=O)COCCOCCNC(=O)CC[C@H](NC(=O)CCCCCCCCCCCCCCCCC(=O)O)C(=O)O)C(=O)N[C@H](C(N)=O)[C@@H](C)O)C(C)C) | 3 pM |
| HSQGTFTSDYSKYLDSKRAQEFVK([AEEA-AEEA-γGlu-C18 diacid])WLLST-NH2 (N-terminus assumed; SMILES CC(C)C[C@H](NC(=O)[C@H](Cc1ccc(O)cc1)NC(=O)[C@H](CCCCN)NC(=O)[C@H](CO)NC(=O)[C@H](Cc1ccc(O)cc1)NC(=O)[C@H](CC(=O)O)NC(=O)[C@H](CO)NC(=O)[C@@H](NC(=O)[C@H](Cc1ccccc1)NC(=O)[C@@H](NC(=O)CNC(=O)[C@H](CCC(N)=O)NC(=O)[C@H](CO)NC(=O)[C@@H](N)Cc1c[nH]cn1)[C@@H](C)O)[C@@H](C)O)C(=O)N[C@@H](CC(=O)O)C(=O)N[C@@H](CO)C(=O)N[C@@H](CCCCN)C(=O)N[C@@H](CCCNC(=N)N)C(=O)N[C@@H](C)C(=O)N[C@@H](CCC(N)=O)C(=O)N[C@@H](CCC(=O)O)C(=O)N[C@@H](Cc1ccccc1)C(=O)N[C@H](C(=O)N[C@@H](CCCCNC(=O)COCCOCCNC(=O)COCCOCCNC(=O)CC[C@H](NC(=O)CCCCCCCCCCCCCCCCC(=O)O)C(=O)O)C(=O)N[C@@H](Cc1c[nH]c2ccccc12)C(=O)N[C@@H](CC(C)C)C(=O)N[C@@H](CC(C)C)C(=O)N[C@@H](CO)C(=O)N[C@H](C(N)=O)[C@@H](C)O)C(C)C) | 7 pM |
| H[Aib]QGTFTSDYSKYLDK([AEEA-AEEA-γGlu-C18 diacid])KRAQEFVQWLLNT-NH2 (N-terminus assumed; SMILES CC(C)C[C@H](NC(=O)[C@H](Cc1ccc(O)cc1)NC(=O)[C@H](CCCCN)NC(=O)[C@H](CO)NC(=O)[C@H](Cc1ccc(O)cc1)NC(=O)[C@H](CC(=O)O)NC(=O)[C@H](CO)NC(=O)[C@@H](NC(=O)[C@H](Cc1ccccc1)NC(=O)[C@@H](NC(=O)CNC(=O)[C@H](CCC(N)=O)NC(=O)C(C)(C)NC(=O)[C@@H](N)Cc1c[nH]cn1)[C@@H](C)O)[C@@H](C)O)C(=O)N[C@@H](CC(=O)O)C(=O)N[C@@H](CCCCNC(=O)COCCOCCNC(=O)COCCOCCNC(=O)CC[C@H](NC(=O)CCCCCCCCCCCCCCCCC(=O)O)C(=O)O)C(=O)N[C@@H](CCCCN)C(=O)N[C@@H](CCCNC(=N)N)C(=O)N[C@@H](C)C(=O)N[C@@H](CCC(N)=O)C(=O)N[C@@H](CCC(=O)O)C(=O)N[C@@H](Cc1ccccc1)C(=O)N[C@H](C(=O)N[C@@H](CCC(N)=O)C(=O)N[C@@H](Cc1c[nH]c2ccccc12)C(=O)N[C@@H](CC(C)C)C(=O)N[C@@H](CC(C)C)C(=O)N[C@@H](CC(N)=O)C(=O)N[C@H](C(N)=O)[C@@H](C)O)C(C)C) | 7 pM |
| HSQGTFTSDYSKYLDSKRAQEFVQWLLNTK([AEEA-AEEA-γGlu-C18 diacid])-NH2 (N-terminus assumed; SMILES CC(C)C[C@H](NC(=O)[C@H](Cc1ccc(O)cc1)NC(=O)[C@H](CCCCN)NC(=O)[C@H](CO)NC(=O)[C@H](Cc1ccc(O)cc1)NC(=O)[C@H](CC(=O)O)NC(=O)[C@H](CO)NC(=O)[C@@H](NC(=O)[C@H](Cc1ccccc1)NC(=O)[C@@H](NC(=O)CNC(=O)[C@H](CCC(N)=O)NC(=O)[C@H](CO)NC(=O)[C@@H](N)Cc1c[nH]cn1)[C@@H](C)O)[C@@H](C)O)C(=O)N[C@@H](CC(=O)O)C(=O)N[C@@H](CO)C(=O)N[C@@H](CCCCN)C(=O)N[C@@H](CCCNC(=N)N)C(=O)N[C@@H](C)C(=O)N[C@@H](CCC(N)=O)C(=O)N[C@@H](CCC(=O)O)C(=O)N[C@@H](Cc1ccccc1)C(=O)N[C@H](C(=O)N[C@@H](CCC(N)=O)C(=O)N[C@@H](Cc1c[nH]c2ccccc12)C(=O)N[C@@H](CC(C)C)C(=O)N[C@@H](CC(C)C)C(=O)N[C@@H](CC(N)=O)C(=O)N[C@H](C(=O)N[C@@H](CCCCNC(=O)COCCOCCNC(=O)COCCOCCNC(=O)CC[C@H](NC(=O)CCCCCCCCCCCCCCCCC(=O)O)C(=O)O)C(N)=O)[C@@H](C)O)C(C)C) [N^α- ([Lys^17, Glu^21, Leu^27]Glucagonyl) …] | 17 pM |
| HSQGTFTSDYSKYLDSKRAQEFVK([AEEA-AEEA-γGlu-C18 diacid])WLLET-NH2 (N-terminus assumed; SMILES CC(C)C[C@H](NC(=O)[C@H](Cc1ccc(O)cc1)NC(=O)[C@H](CCCCN)NC(=O)[C@H](CO)NC(=O)[C@H](Cc1ccc(O)cc1)NC(=O)[C@H](CC(=O)O)NC(=O)[C@H](CO)NC(=O)[C@@H](NC(=O)[C@H](Cc1ccccc1)NC(=O)[C@@H](NC(=O)CNC(=O)[C@H](CCC(N)=O)NC(=O)[C@H](CO)NC(=O)[C@@H](N)Cc1c[nH]cn1)[C@@H](C)O)[C@@H](C)O)C(=O)N[C@@H](CC(=O)O)C(=O)N[C@@H](CO)C(=O)N[C@@H](CCCCN)C(=O)N[C@@H](CCCNC(=N)N)C(=O)N[C@@H](C)C(=O)N[C@@H](CCC(N)=O)C(=O)N[C@@H](CCC(=O)O)C(=O)N[C@@H](Cc1ccccc1)C(=O)N[C@H](C(=O)N[C@@H](CCCCNC(=O)COCCOCCNC(=O)COCCOCCNC(=O)CC[C@H](NC(=O)CCCCCCCCCCCCCCCCC(=O)O)C(=O)O)C(=O)N[C@@H](Cc1c[nH]c2ccccc12)C(=O)N[C@@H](CC(C)C)C(=O)N[C@@H](CC(C)C)C(=O)N[C@@H](CCC(=O)O)C(=O)N[C@H](C(N)=O)[C@@H](C)O)C(C)C) | 3 pM |
